Data reported in paper PMC7006816, “Human β-Defensin 2 Mediated Immune Modulation as Treatment for Experimental Colitis” (Frontiers in Immunology, 2020).
Where no end group is shown, it is not given here.

What was measured:
murine BM-DC's = test: Cytokine production by murine BM-DC's; assay type: cell-based, mouse; conditions: n = 3
Protocol: BM-DC's were generated using granulocyte-macrophage colony-stimulating factor (GM-CSF) and RPMI-1640 medium (Merck) supplemented with 10% fetal calf serum (FBS; Life Technologies), 2 mM glutamine (Thermo Fisher), 100 U/ml penicillin/streptomycin (Gibco), 50 μM 2-mercaptoethanol (Roth), 1 mM sodium pyruvate (Biochrome), and 1x non-essential amino acids (Biochrome) as previously described ([28]). Shortly, 2 × 10^6 bone marrow cells flushed from the tibias and femurs of C57BL/6 mice were seeded in dishes containing 200 U/ml GM-CSF. After 3 days extra medium containing GM-CSF was added to the cells and on day 6 half of the medium was replaced by fresh […] containing GM-CSF. After 7 or 8 days slightly attached cells were harvested. Female C57BL/6JolaHsd mice were purchased from Janvier (St. Berthevin Cedex, France). Animal experiments were performed in strict accordance with the German regulations of the Society for Laboratory Animal Science (GV-SOLAS) and the European Health Law of the Federation of Laboratory Animal Science Associations (FELASA). The protocol was approved by the Regierungspräsidium Tübingen (Anzeige 09.01.2014).
2 × 10^5 murine BM-DC's or human Mo-DC's were seeded in 96-well round bottom plates. First they were pretreated with 100 ng/ml pertussis toxin (Sigma-Aldrich) or 5 μM of the CCR2 inhibitor RS 504393 (Tocris) and subsequently stimulated with 100 ng/ml LPS or 0.2 […] and 10 μg/ml or 100 μg/ml hBD2. 24 h later supernatants were collected and TNF-α [Biolegend (BM-DC's); R&D (Mo-DC's)] was analyzed according to the manufacturer's instructions. IL-10, IL-12, and IL-1β (LEGENDplex Biolegend) was as well-analyzed according to the manufacturer's instructions.

human primary PBMC's = test: Stimulation of PBMCs of healthy volunteers with TLR ligands, cytokine release; assay type: cell-based; conditions: hBD2 100, 40, 10 or 1 μg/ml, 24 h, cytometric bead array
Protocol: Heparinized blood was diluted 1/1 v/v with RPMI (Gibco) and was subjected to Ficoll-Paque Plus (GE healthcare) density centrifugation within 2 h of drawing. Plasma was collected from the top from individual donors and was kept on ice until it was used at 2% in the culture medium (autologous culture medium). Isolated PBMC's were re-suspended in autologous culture medium and seeded in 96-well culture plates with 115.500 cells per well (Figure 1) or 200.000 cells per well (Figure 2) in a total of 200 μl. […] The supernatants were collected after incubation at 37°C for 24 h, and stored at −80°C until cytokine measurement.
The experiment in Figure 1 was performed with healthy volunteers, which were recruited under an approval from the Ethical Committee for Region Capital, Denmark. Interleukin 1β (IL-1β) and tumor necrosis factor alpha (TNF-α) (Figure 1) were quantified in supernatants by flow cytometry using a human inflammation cytometric bead array (CBA) according to manufacturer's instructions (BD) using a FACSarray flow cytometer. IL-1β, TNF- α, Interferon gamma (INF-y), Interleukin 12p70 (IL-12), and Interleukin 23 (IL-23) were analyzed using a human inflammation cytometric bead array (LegendPlex Biolegends) according to manufacturer's instructions.

NMRI mice = test: In vivo toxicity test, single s.c. dose; parameters: species or system mouse; conditions: for Clinical signs at the end of the day of dosing / Clinical signs on the day of dosing: Clinical signs / Clinical signs on the day of dosing: No clinical signs / Clinical signs on the day of dosing: Pruritus / Necropsy: Macroscopic findings: female NMRI mice; for Clinical signs at the end of the day of dosing / Clinical signs on the day of dosing: Clinical signs / Clinical signs on the day of dosing: No clinical signs / Clinical signs on the day of dosing: Pruritus: animals/group; for Necropsy: Macroscopic findings: necropsy day 4, animals/group
Protocol: In vivo toxicity of hBD2 was assessed in 6–8 weeks old female NMRI mice (Taconic Europe). All animal studies were performed according to Danish legislations for laboratory animals and approved by Novozymes science ethics committee. hBD2 was given subcutaneously (s.c.) in the intrascapular region using a 25G needle and a 1 ml syringe. […] Clinical signs were recorded on day 0 and monitored until experimental endpoints. Body weights were recorded as a minimum on day 0, day 2, and day 4 prior to euthanasia. Necropsy was performed after euthanasia and kidneys, spleens and livers were weighed.

human Mo-DC's = test: Cytokine production by human Mo-DC's; assay type: cell-based; conditions: hBD2 100 μg/ml or 10 μg/ml, 24 h, ELISA, n = 3
Protocol: Peripheral blood was drawn from healthy donors and diluted one to one in PBS. The mixture was stacked in a falcon tube on Biocoll separation solution (Biochrome) with a ratio of three parts blood PBS mixture to two parts Biocoll. For a density gradient centrifugation the falcon tubes were centrifuged at 2,000 rpm for 30 min at RT. The PBMC's were removed and washed twice with PBS. 1.5 × 10^6 cells were seeded per well in a tissue culture-treated 6-well plate in RPMI-1640 medium (Merck) supplemented with 10% fetal calf serum (FCS; Sigma-Aldrich), 2 mM L-glutamine (Biochrome), 100 U/ml penicillin/streptomycin (Gibco), 50 μM 2-mercaptoethanol (Fluka), 1 mM sodium pyruvate (Biochrome), and 1x non-essential amino acids (Biochrome) and incubated for 1 h at 37°C and 5% CO2 for monocyte adherence. Then the cells were washed with media and PBS to remove the non-adherent cells and were cultivated for 6 days with media additional supplemented with 50 ng IL-4 and 100 ng GM-CSF (Miltenyi). […]
2 × 10^5 murine BM-DC's or human Mo-DC's were seeded in 96-well round bottom plates. […] 24 h later supernatants were collected and TNF-α [Biolegend (BM-DC's); R&D (Mo-DC's)] was analyzed according to the manufacturer's instructions. IL-10, IL-12, and IL-1β (LEGENDplex Biolegend) was as well-analyzed according to the manufacturer's instructions.

[1] = test system: human mesenchymal stem cells, osteoblasts, keratinocytes, and HeLa cells; conditions: cited from earlier work
Source text: (§1) Herein we report that hBD2 can be used as a systemically administered anti-inflammatory biological. hBD2 is well-tolerated, both in vitro, and in vivo. […] After su ...

[2] = test system: intestinal epithelial cells; conditions: cited from earlier work
Source text: as §1

[3] = LPS, hBD2 100 μg/ml, 24 h, LEGENDplex

For “human β-defensin 2 (GIGDPVTCLKSGAICHPVFCPRRYKQIGTCGLPGTKCCKKP; not fully specified; ends and bridges not checked) [hBD2, Recombinant human β-defensin 2 expressed in E. coli as his-tagged thioredoxin fusion, cleaved and purified, natural tertiary structure]”, the “TNF-α production in LPS-challenged murine BM-DCs” value (murine BM-DC's; LPS, hBD2 100 μg/ml or 10 μg/ml, 24 h, ELISA) was “dose-dependently curbed TNF-α production”, the IL-10 secretion (murine BM-DC's; [3]) was “substantial induction” and the “LPS-induced IL-1β secretion” value (murine BM-DC's; [3]) was “alleviated”. The “LPS-induced IL-12p70 secretion” value (murine BM-DC's; [3]) was “alleviated”, the “LPS-induced TNF-α secretion” value (murine BM-DC's; [3]) was “alleviated” and the “Cytokine production after TLR-independent activation” value (murine BM-DC's; cytokine cocktail TNF-α, IL-6, IL-1β (0.2 mg/ml each), hBD2 100 μg/ml) was “failed to modulate TLR-independent activation of BM-DCs”. The “Release of IL-1β” value (human primary PBMC's; LPS 20 pg/ml, n = 150–194) was “consistently mitigated release of both cytokines”, the “Release of TNF-α” value (human primary PBMC's; LPS 20 pg/ml, n = 150–194) was “consistently mitigated release of both cytokines” and the “Release of IL-1β” value (human primary PBMC's; Pam3CSK4 0.3 μg/ml) was “significantly reduced”. The “Release of TNF-α” value (human primary PBMC's; Pam3CSK4 0.3 μg/ml) was “significantly reduced”, the “Clinical signs after systemic challenge” value (NMRI mice; 0.5 mg/kg s.c.) was “did not develop any clinical signs” and the “Clinical signs at the end of the day of dosing” value (“Clinical signs at the end” below) (NMRI mice; 0.5 mg/kg s.c.) was 0/3. For the same substance, the “Clinical signs on the day of dosing: Clinical signs” value (NMRI mice; 0.5 mg/kg s.c.) was 0/3, the “Clinical signs on the day of dosing: No clinical signs” value (shortened to “Clinical signs … No clinical signs”) (NMRI mice; 0.5 mg/kg s.c.) was 3/3 and the “Clinical signs on the day of dosing: Pruritus” value (“Clinical signs … Pruritus” below) (NMRI mice; 0.5 mg/kg s.c.) was 0/3. The “Necropsy: Macroscopic findings” value (NMRI mice; 0.5 mg/kg s.c.) was 0/3, the “Clinical signs at the end” value (NMRI mice; 10 mg/kg s.c.) was 0/3 and the “Clinical signs on the day of dosing: Clinical signs” value (NMRI mice; 10 mg/kg s.c.) was 3/3. The “Clinical signs … No clinical signs” value (NMRI mice; 10 mg/kg s.c.) was 0/3, the “Clinical signs … Pruritus” value (NMRI mice; 10 mg/kg s.c.) was 3/3 and the “Necropsy: Macroscopic findings” value (NMRI mice; 10 mg/kg s.c.) was 0/3. The “Clinical signs at 60 min post dosing” value (NMRI mice; 40 mg/kg s.c.) was “still affected at 60 min post dosing”, the “Clinical signs at the end” value (NMRI mice; 40 mg/kg s.c.) was 0/3 and the “Clinical signs … No clinical signs” value (NMRI mice; 40 mg/kg s.c.) was 0/3. For the same substance, the “Clinical signs … Pruritus” value (NMRI mice; 40 mg/kg s.c.) was 3/3, the “Necropsy: Macroscopic findings” value (NMRI mice; 40 mg/kg s.c.) was 0/3 and the Body weight gain (NMRI mice; 0.5, 10, 40 mg/kg s.c., day 0-4) was “did not show any weight loss”. The “Adverse effects at necropsy” value (NMRI mice; 0.5, 10, 40 mg/kg s.c., necropsy day 4) was “no adverse effects were observed at necropsy”, the “Organ weight (liver, spleen, kidneys)” value (NMRI mice; 0.5, 10, 40 mg/kg s.c., necropsy day 4, hBD2 mice n = 3, control n = 2) was “nor did the organ weight differ significantly between the groups” and the “Clinical signs shortly after challenge” value (NMRI mice; 10 or 40 mg/kg s.c., 10–15 min after challenge, transient) was “mild clinical signs”. For the same substance, the “TNF-α production in LPS-challenged human mo-DCs” value (human Mo-DC's) was “dose-dependently curbed TNF-α production”, the Cytotoxic effects [1] was “without observing cytotoxic effects” and the Tolerability [2] was “well-tolerated by intestinal epithelial cells”.
